Experimental findings from CN107042091A are described below.

Assay [1] has as its target Myc-GST融合蛋白. The experiment in a line: ELISA, Myc-GST coated at 5 μg/mL, HRP anti-His second antibody, heat test at 90℃ for 30 min. A general note: ELISA stands for enzyme-linked immunosorbent assay.
The target of assay [2] is Myc-GST融合蛋白. The experiment in a line: ELISA, Myc-GST coated at 5 μg/mL, HRP anti-His second antibody, heat test at 80℃ for 30 min.
Assay [3] has as its target Myc-GST融合蛋白. Description: ELISA, Myc-GST coated at 5 μg/mL, HRP anti-His second antibody, heat test at 70℃ for 30 min.

B1: 抗c-Myc标签单域重链抗体 (VHH, not shown: small tags and cut ends)
VHH: QLQLVESGGGEVHPGGSLTLSCEVSGINPAYYAIGWFHQSPGKEREGVACISQGGAKTNYADSVKGRFTISRDSAKNTVYLHMNSLQSEDTGSYYCARRRGAYCTESNSAGDYASWGQGTQVTVST
As for B1, the OD450 in the assay with Myc-GST融合蛋白 [1] stood at 1.1; in the assay with Myc-GST融合蛋白 [2], 1.3; with Myc-GST融合蛋白 [3], 1.4.
